Here are results for five substances from article PMC12541460.

Where only a bound is given, the exact number is not on record here.

The target in assay [1] is Mcm2-7 helicase labeled at the N terminus of Mcm6 with DyLight 650 (Mcm2-7^6N-650), used as Mcm2-7-Cdt1 (S. cerevisiae) (UniProt P29469). Put plainly: FRET or BRET; single-molecule FRET with colocalisation (CoSMoS), Orc6-tether assay: donor DyLight 550 on Orc6 of ORC, acceptor DyLight 650 at the N terminus of Mcm6 of Mcm2-7; origin DNA attached to the slide; 0.5 to 1 nM ORC, 3 to 10 nM Cdc6, 10 to 15 nM Mcm2-7-Cdt1; 25 mM HEPES-KOH pH 7.6, 300 mM potassium glutamate, 5 mM Mg(OAc)2, 3 mM ATP; only events with ORC and Mcm2-7 both on DNA for at least five frames; the high E_FRET state is read as the Orc6N-Mcm2-7N (tether) interaction. (In general: In BRET a luciferase serves as donor, and the signal depends on an acceptor being close.)

Assay [2] deals with Mcm2-7^6N-650 in complex with Cdt1 labeled with DyLight 650 (Mcm2-7^6N-650-Cdt1^C-650) (S. cerevisiae) (UniProt P29469).
Assay [3] has the same target. The assay is described as follows: FRET or BRET; single-molecule FRET with colocalisation (CoSMoS), Orc6-tether assay: donor DyLight 550 on Orc6 of ORC, acceptor DyLight 650 at the N terminus of Mcm6 of Mcm2-7; origin DNA attached to the slide; 0.5 to 1 nM ORC, 3 to 10 nM Cdc6, 10 to 15 nM Mcm2-7-Cdt1; 25 mM HEPES-KOH pH 7.6, 300 mM potassium glutamate, 5 mM Mg(OAc)2, 3 mM ATP; only events with ORC and Mcm2-7 both on DNA for at least five frames; the high E_FRET state is read as the Orc6N-Mcm2-7N (tether) interaction.

Assay [4] has the same target. The source holds these as a separate data set.
For assay [5] the target is unchanged. The source holds these as a separate data set.

On to “ORC that lacks the Orc6 N-terminal domain, labeled with DyLight 550 (ORC^6ΔN-550) (from UniProt P54784 1-914; P32833 1-620; P54790 1-616; P54791 1-529; P50874 1-479; P38826 1-435) (complex)”, for which the percent of stably recruited Mcm2-7 that reached the high E FRET (tether) state in assay [1] was 82.3%. Also, in assay [2], the ORC molecules released within 7.8 s (three frames) after Cdt1 release amounted to 80% and the ORC molecules retained for more than 100 s on DNA after Cdt1 release (of 106 molecules) is 1.
With “CDK-phosphorylated ORC^6N-550 (Orc2 and Orc6 phosphorylated), P54784 1-914; P32833 1-620; P54790 1-616; P54791 1-529; P50874 1-479; P38826 1-435”, in assay [1], the lifetime of the tether interaction, fold shorter than unphosphorylated ORC came to 2.5 fold; the median time of tether formation, fold of unphosphorylated ORC is above 2 fold; the percent of recruited Mcm2-7 that exhibited a stable high E FRET (tether) state was determined as 53.9%.
As for “ORC that lacks Orc6N and has the Orc6 lnk1 region scrambled, labeled with DyLight 550 (ORC^6ΔN-lnk1scr-550) (from UniProt P54784 1-914; P32833 1-620; P54790 1-616; P54791 1-529; P50874 1-479; P38826 1-435) (complex)”, the percent of stably recruited Mcm2-7 that reached the high E FRET (tether) state in assay [1] worked out at 4.4%. In assay [2], the ORC molecules released within 7.8 s (three frames) after Cdt1 release stood at 83% and the ORC molecules retained for more than 100 s on DNA after Cdt1 release (of 106 molecules) came out at 0.
Turning to “ORC with the Orc6 lnk1 region (aa 120 to 185) scrambled, labeled with DyLight 550 (ORC^6-lnk1scr-550) (from UniProt P54784 1-914; P32833 1-620; P54790 1-616; P54791 1-529; P50874 1-479; P38826 1-435) (complex)”, in assay [1], the median lifetime of the tether interaction amounted to 9.7 s and the median time to form the tether interaction, fold of WT ORC amounted to 2 fold. In assay [2], the ORC molecules released after 7.8 s after Cdt1 release was determined as 63% and the ORC molecules retained for longer than 100 s after Cdt1 release was 13%.
For the substance “origin recognition complex labeled at the Orc6 N-terminal region with DyLight 550 (ORC^6N-550), P54784 1-914; P32833 1-620; P54790 1-616; P54791 1-529; P50874 1-479; P38826 1-435”, in assay [1], the median duration of the Orc6N-Mcm2-7N interaction was found to be 26.4 s, the median time to form the high E FRET state after Mcm2-7-Cdt1 recruitment was 7.2 s and the percent of stably recruited Mcm2-7 that reached the high E FRET (tether) state is 91.5%. For the same substance, the recruitment events in which a high E FRET (tether) state formed (of 162 events) in assay [3] was found to be 152. In assay [4], this substance came in with a median time of ORC retention after Cdt1 release, Orc6 tether interaction absent at the time of Cdt1 release of 3.8 s and a median time of ORC retention after Cdt1 release, Orc6 tether interaction present at the time of Cdt1 release of 23.8 s. Moreover, in assay [2], the ORC molecules released within 7.8 s (three frames) after Cdt1 release was 39% and the ORC molecules retained for more than 100 s on DNA after Cdt1 release amounted to 24%. For the same substance, in assay [5], the ORC molecules released within one video frame (~2.6 s) after Cdt1 release, tether interaction present as Cdt1 was released came to 25% and the ORC molecules released within one video frame (~2.6 s) after Cdt1 release, tether not present as Cdt1 is released (of 33 molecules) was 16.
